Experimental data as given in patent US8455615B2, “Methods and compositions for prostate cancer immunotherapy” (Beth Israel Deaconess Medical Center, priority 2008, dated 2013).

What was measured:
HLA-A2.1 [1] = target: T1, HLA-A2.1 (Homo sapiens, UniProt P04439, D140Y/D185E/D98H/E176V/E277Q/G131W/G231S/I119V/I121R/I166T/I218V/L300P/L318F/N151K/N90K/P208A/P217A/Q86G/Q94H/R138H/R169H/T345S); experiment: Peptide-HLA-A2.1 dissociation rate on T2 cells with Brefeldin A (SIM2 peptides); assay type: cell-based; settings: 50 μg/ml peptide, loss of A2.1 expression over time
T1 construct: stabilize MHC class I molecules from the T2 cell line; endogenous in cells; host or cells: T2 cells
Method: T2 cells were incubated overnight with 50 μg/ml of each candidate peptide at 37° C. in serum-free Iscove's Modified Dulbecco's Medium (IMDM). Cells were then incubated with Brefeldin A (Sigma, St. Louis, Mo.) at 10 μg/ml for 1 hour, washed, and incubated at 37° C. for 0, 2, 4 or 6 hours in the presence of Brefeldin A (50 ng/ml). Cells were then stained with BB7.2 mAb. For each time point, peptide-induced HLA-A2.1 expression was calculated as the difference of the mean fluorescence of peptide-loaded T2 cells and mean fluorescence of negative peptide-loaded T2 cells. The rate of dissociation is reflected by the loss of A2.1 expression over time.

transgenic HHD mice = experiment: Immunization of HHD mice with SIM2 peptides, IFN-γ ELISPOT on splenocytes; assay type: in vivo, mouse; settings: male HHD mice, s.c. peptide in IFA with HBVcore128-140 helper epitope, 10-12 days; P<0.01 for SIM2(87), P<0.001 for other epitopes
Method: These nine SIM2 peptides were then tested for their capacity to elicit in vivo CTL responses in transgenic HHD mice. Ten to 12-week old male HHD mice were injected subcutaneously at the basis of the tail with […] of each candidate peptide emulsified in 50 μl of Incomplete Freund's Adjuvant (IFA) and 50 μl PBS in the presence of 150 μg of the I-A^b restricted HBVcore128-140 T helper epitope ([…]; SEQ ID NO: 88). Ten to twelve days post-immunization, spleens were harvested and splenocytes tested for peptide-induced specific release of IFN-γ by ELISPOT. To perform the ELISPOT assays, 96-well Millipore IP plates were coated with 100 μl/well mouse IFN-γ specific capture mAb (AN18, Mabtech Inc., Mariemont, Ohio) at a concentration of 10 μg/ml in PBS overnight at 4° C. Wells were washed with PBS and saturated with RPMI/10% FCS for 1 hour at 37° C. A total of 2.5×10^5 splenocytes were seeded in each well in four replicates and 5×10^4 peptide-loaded (10 μg peptide/ml, for 2 hours at 37° C.) splenocytes pretreated with 50 μg/ml Mitomycin C for 1 hour were added to each well. Plates were incubated for 1-2 days at 37° C. in 5% CO2, washed 5 times with PBS, and then incubated with 1 μg/ml of biotinylated rat anti-mouse IFN-γ mAb (R4-6A2, Mabtech Inc.) for 24 hours at 4° C. or at room temperature for 2 hours. The wells were washed, and incubated with 100 μl of diluted alkaline phosphatase-conjugated streptavidin for 1 hour at room temperature. Spots were developed by adding […] substrates (5-bromo-4,3-indolyl phosphate and nitroblue tetrazolium) and counted using the ELRO4 AID ELISPOT Reader System (Autoimmun Diagnostika GmbH, Straf3berg, Germany).

HLA-A2.1 [2] = target: T1, HLA-A2.1; experiment: MHC stabilization assay on T2 cells (SIM2 peptides); assay type: cell-based; settings: 50 μg peptide/250×10^3 cells/ml overnight at 37° C., BB7.2 mAb, flow cytometry
Method: Epitope candidates were evaluated for binding to HLA-A2.1 using an MHC stabilization assay. The assay is based on the ability of suitable peptides to stabilize MHC class I molecules from the T2 cell line. T2 cells lack a functional transporter associated with antigen presentation (TAP) and as a result accumulate empty, unstable class I molecules on the cell surface. These molecules on the cell surface dissociate rapidly unless they are stabilized by the addition of an appropriate binding peptide. In this assay, the flu M1 HLA-A*0201-binding peptide was used as a reference.
Briefly, T2 cells were cultured for 6 hours in serum-free IMDM (ATCC) prior to the addition of candidate peptides at a concentration of 50 μg/250×10^3 cells/ml and incubated overnight at 37° C. Cells were washed, and surface HLA-A2.1 molecules were stained with FITC mouse anti-human HLA-A2 mAb (clone BB7.2, Mouse IgG2b κ, BD Pharmingen) for 1 hour at 4° C. Cells were then washed three times with PBS and analyzed by flow cytometry. A negative control peptide (NEG, see FIG. 6A) and the flu matrix peptide M1 binder peptide (M1, see FIG. 6A) served as controls. The relative binding affinity of a given peptide was calculated as MFI(peptide)/MFI(negative peptide). Only relative binding affinities of 1.5 or higher were considered for further testing.

Row | Substance | peptide-HLA dissociation rate (weak or strong stabilizing epitope) (HLA-A2.1 [1]) | peptide-specific IFN-γ release by splenocytes (ELISPOT), immunogenicity (transgenic HHD mice) | binding to / stabilization of HLA-A2.1 molecules (HLA-A2.1 [2])
1 | epitope 430: SIM2 peptide able to stabilize HLA-A2.1 molecules, weak stabilizing epitope; sequence not printed (LLYTPSYSL) | weak stabilizing | – | –
2 | YQIVGLVAV (listed as Homo sapiens) [SIM2(205)] | strong stabilizing | higher numbers of splenocytes to release IFN-γ | –
3 | TLDGFVFVV (listed as Homo sapiens) [SIM2(87)] | strong stabilizing | higher numbers of splenocytes to release IFN-γ | –
4 | FLDSRVTEV (listed as Homo sapiens) [SIM2(244)] | strong stabilizing | higher numbers of splenocytes to release IFN-γ | –
5 | KLIFLDSRV (listed as Homo sapiens) [SIM2(241)] | strong stabilizing | higher numbers of splenocytes to release IFN-γ | –
6 | epitope 84: SIM2 peptide able to stabilize HLA-A2.1 molecules, weak stabilizing epitope; sequence not printed (LLQTLDGFV) | weak stabilizing | – | –
7 | SIM2(199): SIM2 peptide able to stabilize HLA-A2.1 molecules, not immunogenic; sequence not printed (SLYDSCYQI) | weak stabilizing | not immunogenic | bind tightly
8 | SIM2(25): SIM2 peptide that binds tightly to A2.1 but was not immunogenic; sequence not printed (KLLPLPSAI) | – | not immunogenic | bind tightly
9 | SLDLKLIFL (listed as Homo sapiens) [SIM2(237)] | weak stabilizing | higher numbers of splenocytes to release IFN-γ | –
